Data: patent US20120156198A1 (Hoffmann-La Roche, published 2012)

Assays:
[1] = molecular target: T1, cynomolgus IL-18Rα/IL-18Rβ on transfected cells (cynomolgus, UniProt A0A2K5V3J9 19-540; A0A7N9D6S0 20-598); assay: cell ELISA on CHO-K1 cells expressing cynomolgus IL-18Rα+β
T1 construct: whole, on cells; also called CHO CyIL-18Rα + β
T1 sequence 1: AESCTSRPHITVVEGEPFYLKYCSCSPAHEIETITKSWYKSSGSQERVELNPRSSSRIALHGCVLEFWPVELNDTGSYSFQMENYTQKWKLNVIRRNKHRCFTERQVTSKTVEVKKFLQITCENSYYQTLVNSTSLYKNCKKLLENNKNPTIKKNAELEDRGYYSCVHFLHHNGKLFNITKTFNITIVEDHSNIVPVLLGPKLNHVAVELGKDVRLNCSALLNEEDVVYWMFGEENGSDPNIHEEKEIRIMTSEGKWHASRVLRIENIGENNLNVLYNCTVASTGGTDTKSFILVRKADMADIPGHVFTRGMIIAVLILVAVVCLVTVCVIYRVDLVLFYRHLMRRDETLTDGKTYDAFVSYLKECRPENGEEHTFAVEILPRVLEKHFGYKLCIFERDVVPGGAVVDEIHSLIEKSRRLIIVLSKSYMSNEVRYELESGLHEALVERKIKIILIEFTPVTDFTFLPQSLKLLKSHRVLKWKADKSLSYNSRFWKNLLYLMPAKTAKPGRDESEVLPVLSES
T1 sequence 2: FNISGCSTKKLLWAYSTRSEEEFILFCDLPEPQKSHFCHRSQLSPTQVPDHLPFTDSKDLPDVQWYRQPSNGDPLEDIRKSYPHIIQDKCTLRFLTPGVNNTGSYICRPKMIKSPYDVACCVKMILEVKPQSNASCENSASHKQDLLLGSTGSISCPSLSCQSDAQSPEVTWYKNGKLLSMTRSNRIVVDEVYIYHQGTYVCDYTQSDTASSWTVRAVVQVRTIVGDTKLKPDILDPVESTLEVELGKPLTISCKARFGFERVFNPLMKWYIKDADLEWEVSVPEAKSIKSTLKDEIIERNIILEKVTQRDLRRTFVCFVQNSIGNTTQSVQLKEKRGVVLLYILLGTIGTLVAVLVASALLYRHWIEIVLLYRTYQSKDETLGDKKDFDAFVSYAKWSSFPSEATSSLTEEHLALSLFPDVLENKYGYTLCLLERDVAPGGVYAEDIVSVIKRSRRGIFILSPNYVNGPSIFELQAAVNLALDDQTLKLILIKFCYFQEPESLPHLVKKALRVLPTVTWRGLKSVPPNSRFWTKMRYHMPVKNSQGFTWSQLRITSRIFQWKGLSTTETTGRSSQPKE
Protocol: (§1) The recombinant cell lines CHO-K1 expressing cynomolgus IL-18Rα or cynomolgus IL-18Rα+β were stained with the Mab_IL-18R antibodies in a cell ELISA. Controls are CHO-K1 untransfected cells. Cells were grown in F-12 medium (GIBCO) with Glutamax-1 (GIBCO Cat. No. 31331-028)+10% FCS (PAN Cat. No. 2802-P920707). For cultivation of the recominant cell lines 250 μg/ml G418 (Geneticin, GIBCO, Cat. No. 10131-019) was added. As control antibody anti hIL-18Ralpha Antibody Mab840 (Mouse monoclonal IgG1 from R&D Systems, Cat. MAB 840) and as detection antibody goat anti-mouse IgG (H+L)-HRP conjugate (BioRad) was added. For running the assay, on day 1 2×10⁴ CHO_CynoIL-18Rα, CHO_CynoIL-18Rα+β or untransfected CHO cells in 50 μl F-12/well were seeded in a 96-well plate and incubated overnight at 37° C. On day 2, 50 μl supernatant or (2×) purified antibody diluted in medium or 50 μl Hybridoma supernatant were added and incubated for 2 h at 4° C. Supernatant was aspirated and 100 μl/well Glutaraldehyde fixing solution (25% stock solution Grade EM; final concentration=0.05% in PBS) was added and incubated for 10 minutes at room temperature. For washing 2 times 200 μl PBS/well/wash was added and removed. 50 μl of ELISA detection-antibody diluted in ELISA blocking reagent (ELISA blocking stock reagent diluted 1:10 in PBS) was added. […] The plates were measured at 450 nm-620 nm using an ELISA reader (TECAN).

[2] = molecular target: T2, cynomolgus IL-18Rα on CHO-K1 cells (cynomolgus, UniProt A0A2K5V3J9 19-540); assay: cell ELISA on CHO-K1 cells expressing cynomolgus IL-18Rα
T2 construct: whole, on cells; also called CHO CyIL-18Rα
T2 sequence: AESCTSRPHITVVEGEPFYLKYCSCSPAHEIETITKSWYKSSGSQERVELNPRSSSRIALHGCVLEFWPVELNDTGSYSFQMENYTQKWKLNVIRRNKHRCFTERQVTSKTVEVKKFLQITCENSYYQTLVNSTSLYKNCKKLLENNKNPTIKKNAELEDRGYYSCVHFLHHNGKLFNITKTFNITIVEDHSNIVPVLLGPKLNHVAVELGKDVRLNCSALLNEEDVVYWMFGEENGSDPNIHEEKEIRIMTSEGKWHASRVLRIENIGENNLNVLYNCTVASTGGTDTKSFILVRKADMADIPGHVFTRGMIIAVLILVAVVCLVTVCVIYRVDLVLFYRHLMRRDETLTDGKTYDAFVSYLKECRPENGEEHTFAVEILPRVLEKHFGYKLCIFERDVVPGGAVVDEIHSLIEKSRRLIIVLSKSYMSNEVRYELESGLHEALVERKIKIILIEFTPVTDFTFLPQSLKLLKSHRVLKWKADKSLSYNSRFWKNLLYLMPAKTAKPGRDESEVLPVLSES
Protocol: as §1

EC50 [1]: 0.015 µg/mL
EC50 [2]: 0.0186 µg/mL
B1: Mab 1G12 (antibody, V domains shown)
VH: QVQLQQPGAELVKPGASVRMSCKTSDYTFTSNWMHWVKQRPGQGLEWIGTIDPSDSYTYYNQKFKGRATLTVDTSSSTAYMQLSSLTSEDSAVYYCTTSGDYDADRYFDVWGAGTTVTVSS
VL: DIVLTQSPASLGVSLGQRATISCRASKSVSTSGDSYMHWYQQKPGQSPKLLIYLASNLESGVPARFSGSGSGTDFTLNIHPVEEEDAATYYCQQSRELPLSFGAGTKLELK
notes: Monoclonal antibody from immunized NMRI mice; detected with anti-mouse IgG1-PE / anti-mouse IgG; also called F20.1G12; monoclonal antibody 1G12
